Here are results for 32 molecules from patent US20110059504A1 (GENERAL HOSPITAL, published 2011).

Numbering of substitutions follows the chain as printed. Names and notes keep the numbering of the source.

This test concerns the target T1, human myostatin (human, UniProt O14793 267-375, biotinylated in selections and radioactive assays (site not stated)).
T1 construct: Phage ELISA used both unbiotinylated and biotinylated myostatin; also called biotinylated human myostatin; myostatin-biotin
T1 sequence (looked up): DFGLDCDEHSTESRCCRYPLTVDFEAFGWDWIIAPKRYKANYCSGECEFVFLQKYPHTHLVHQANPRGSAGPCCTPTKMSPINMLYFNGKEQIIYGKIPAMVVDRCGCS
In words: radioactive equilibrium binding assay. The method, then:
Affinities of selected F13β2 binders to biotinylated myostatin were determined in radioactive equilibrium binding assay (FIGS. 11A and 11B; Table 3). ³⁵S-labeled binder proteins from selection pools and single clones were produced in vitro in a rabbit reticulocyte lysate translation kit (Ambion) and purified on M2-agarose (Sigma). Varying concentrations of biotinylated human myostatin (0-100 nM) or other proteins (protein 1: 100 nM; peptide 1: 250 nM; protein 2: 50 nM) were incubated with a constant concentration of the purified binder protein (1 or 2 nM) at 30° C. for 30 min in buffer B (1×PBS, 0.02% Triton X-100 [pH 7.4]). The receptor-binder complexes were captured by using 25 μl of M280 or Protein A (Dynal) (protein 2) magnetic beads for 10 min at room temperature on a Kingfisher instrument (Thermo Fisher Scientific). The beads were washed five times with 100 μl buffer B, and the amount of ³⁵S-methionine remained on the beads was measured by scintillation counting. Data were analyzed by using the GraphPad Prism software (GraphPad Software, Inc., San Diego, Calif.), fitted with a one-site, nonlinear binding equation. For inhibition assay the binding of ³⁵S-labeled proteins to 20 or 25 nM of biotinylated human myostatin was performed in the presence of varying concentrations of inhibitor (human activin receptor IIB/Fc chimera (R&D Systems, Minneapolis, Minn.) (0-250 nM); protein 1 (100 nM), peptide 1 (250 nM), protein 2 (50 nM); proteins, produced in E. coli, M17, M7, M29, M21, M1-1, WT F13β2 (500 nM)).

B1: 39633-G1 (designed binder)
chain: MTIPEIIIKVRGTQVVGSDMTVIVEFSNPFKETLRNVWVHLDGPGVTRPMKKMFREIPPKTTVQWEEVVRPWVSGHRKLIASMRTQYLIHLYGELDVQIQRRDYKDDDDK
notes: group M1-A50; V91L
As for B1, the B max stood at 52% and the Kd (commonly a measure of binding affinity in units of concentration) was found to be 38.9 nM.

B2: 39633-F4 (designed binder)
chain: B1 chain with R55C, P58R, K60N, T61S, T62I
notes: group M1-A50; V91L
Consider B2, for which the B max was 28.5% and the Kd is 26.8 nM.

B3: 39633-B3 (designed binder)
chain: B1 chain with S27T, F30L, K31S, E32Q, R35S, N36A
notes: group M1-A50; V91L
Turning to B3, the B max was 6.14% and the Kd amounted to 9.93 nM.

B4: 39633-C5 (designed binder)
chain: B1 chain with S27T, N36S, E56V
notes: group M1-A50; V91L; also called M34 (clone ID)
Consider B4, for which the B max turned out to be 93% and the Kd came to 30.8 nM.

B5: 39633-F5 (I3Y, M83I) (designed binder)
chain: B1 chain with I3Y, S27T, N36S, M83I
notes: group M1-A50; V91L, I3Y, M83I
Take B5: the B max is 69.7% and the equilibrium dissociation constant (Kd) came to 32.1 nM.

B6: 39633-E2 (designed binder)
chain: B1 chain with R55C, I57V, P58R, K60N, T61S, T62V
notes: group M1-A50; V91L
In the case of B6, the B max was 21% and the Kd was found to be 27.3 nM.

B7: 39633-D5 (designed binder)
chain: B1 chain with S27T, N36S, R84C, T85E, Q86P, Y87S, I89D, L91V
notes: group M4-A50; also called 39633-D5/yes
Take B7: the B max came to 6.91% and the Kd amounted to 8.69 nM.

B8: 39973-G3 (designed binder)
chain: MTIPEIIIKVRGTQVVGSDMTVIVEFTNPLKETLRNVWVHLDGPGVTRPMKKMFEQIRESEYVQWEEVVRPWVSGHRKLIASMLTETRPHVYGELDVQIQRRDYKDDDDK
notes: group M3-A
Regarding B8, the B max worked out at 1.81% and the Kd is 22 nM.

B9: 39973-B12 (designed binder)
chain: MTIPEIIIKVRGTQVVGSDMTVIVEFKHDRYRYLQQVWVHLDGPGVTRPMKKMFKLIIFSYPVQWEEVVRPWVSGHRKLIASMRFMCPSHVYGELDVQIQRRDYKDDDDK
notes: group M3-A
In the case of B9, the B max is 7.77% and the Kd was 34.5 nM.

B10: 39973-D2 (designed binder)
chain: MTIPEIIIKVRGTQVVGSDMTVIVEFYFSPGARLATVWVHLDGPGVTRPMKKMFHSIYVPFWVQWEEVVRPWVSGHRKLIASMTTTVQGHVYGELDVQIQRRDYKDDDDK
notes: group M3-A
As to B10, the B max worked out at 7.66% and the Kd was 32.9 nM.

B11: 45927-E5 (designed binder)
chain: MTIPEIIIKVRGTQVVGSDMTVIVEFTNPSNYRPCILRNVWVHLDGPGVTRPMKKMFKMIVYHSTVQWEEVVRPWVSGHRKLIASMSKFELSGTSSRGRVYGELDVQIQRRDYKDDDDK
notes: group M3-Aext
With B11, the B max was found to be 8.36% and the Kd amounted to 64.1 nM.

B12: 45927-A11 (designed binder)
chain: MTIPEIIIKVRGTQVVGSDMTVIVEFTNPLKETLRNVWVHLDGPGVTRPMKKMFQKIPGCSTVQWEEVVRPWVSGHRKLIASMSMLGLPFSLRFIPVYGELDVQIQRRDYKDDDDK
notes: group M1-Aext
On to B12, for which the B max came out at 41.2% and the Kd stood at 65 nM.

B13: 45927-B7 (M50T) (designed binder)
chain: B12 chain with M50T, Q55L
notes: group M1-Aext; M50T
For the molecule B13, the B max turned out to be 46.4% and the Kd was 57.6 nM.

B14: 39908-E1 (designed binder)
chain: MTIPEIIIKVRGTQVVGSDMTVIVEFTNLWKEALRNVWMHLDGPGVTRPMKKMFREIATMSTVQWEEVVRPWVSGHRKLIASMTLRPWHVYGELDVQIQRRDYKDDDDK
notes: group M3-A50; FG loop -TLRPW; V39M; also called M04 (clone ID)
As to B14, the B max was 40.2% and the Kd came to 14.8 nM.

B15: 45927-A10 (designed binder)
chain: MTIPEIIIKVRGTQVVGSDMTVIVEFTNPKRDTSVWLRNVWVHLDGPGVTRPMKKMFFTIGYPSTVQWEEVVRPWVSGRRKLIASMSPSILSKGNIGLGVYGELDVQIQRRDYKDDDDK
notes: group M3-Aext; H76R (wild type scaffold numbering)
As to B15, the B max worked out at 8.07% and the Kd is 16.1 nM.

B16: 45927-A12 (designed binder)
chain: MTIPEIIIKVRGTQVVGSDMTVIVEFTNPLRVSEQTLRNVWVHLDGLGVTRPMKKMFGGIRVHSTVQWEEVVRPWVSGHRKLIASMSYVAEYGEWTHYSVYGELDVQIQRRDYKDDDDK
notes: group M3-Aext
Regarding B16, the B max worked out at 3.08% and the Kd is 1.47 nM.

B17: 39973-F10 (designed binder)
chain: MTIPEIIIKVRGTQVVGSDMTVIVEFTNPLKETLRNVWVHLDGPGVTRPMKKMFATIPPYLPVQWEEVVRPWVSGHRKLIASMPQLIHLHVYGELDVQIQRRDYKDDDDK
notes: group M1-A
Consider B17, for which the B max is 68% and the Kd is 28.6 nM.

B18: 39633-D6 (designed binder)
chain: MTIPEIIIKVRGTQVVGSDMTVIVEFTNPFKETLRNVWVHLDGPGVTRPMKKMFCEIRPNSIVQWEEVVRPWVSGHRKLIARCSLSPWHVYGELDVQIQRRDYKDDDDK
notes: group M3-A50; ΔS82, M83R; also called M020 (clone ID)
As to B18, the B max was found to be 79.6% and the Kd is 20.3 nM.

B19: 39908-A3 (designed binder)
chain: B18 chain with N36S, S61R
notes: group M3-A50; ΔS82, M83R; also called M09 (clone ID)
As for B19, the B max turned out to be 57.2% and the Kd came out at 11 nM.

B20: 39908-C6 (designed binder)
chain: B18 chain with N36S
notes: group M3-A50; ΔS82, M83R; also called M05 (clone ID)
As for B20, the B max is 52.2% and the Kd worked out at 19.7 nM.

B21: 39908-A7 (designed binder)
chain: B18 chain with T27S, C83M, S84T, S86R
notes: group M3-A50; ΔS82, M83R; also called M24 (clone ID)
With B21, the B max was found to be 109% and the Kd was determined as 20.1 nM.

B22: 39908-B2 (designed binder)
chain: B18 chain with N36S, C55R, R58P, N60K, S61T, I62T, S84Q, S86L
notes: group M3-A50; ΔS82, M83R; also called M07 (clone ID)
As for B22, the B max was found to be 75.9% and the Kd was found to be 27.1 nM.

B23: 39908-A2 (designed binder)
chain: B18 chain with C55R, E56D, N60K, S61T, I62K
notes: group M3-A50; ΔS82, M83R; also called M03 (clone ID)
With B23, the B max was determined as 68.5% and the Kd came to 15.2 nM.

B24: 39908-C11 (designed binder)
chain: B18 chain with T27S, C55S, P59T, S61A, I62T
notes: group M3-A50; ΔS82, M83R; also called M22 (clone ID)
As to B24, the B max stood at 73.7% and the Kd was determined as 17 nM.

B25: 39908-H4 (designed binder)
chain: B18 chain with T27S, C55R, E56D, N60K, S61T, I62K, S84Q, S86L
notes: group M3-A50; ΔS82, M83R; also called M015 (clone ID)
In the case of B25, the B max is 68.6% and the Kd was determined as 15.8 nM.

B26: 39633-A5 (V46I) (designed binder)
chain: B18 chain with T27S, V46I, I57V
notes: group M3-A50; ΔS82, M83R, V46I
As to B26, the B max turned out to be 78.3% and the Kd came to 19.4 nM.

B27: 39908-F5 (designed binder)
chain: B18 chain with S84Q, S86L
notes: group M3-A50; ΔS82, M83R; also called M16 (clone ID)
On to B27, for which the B max was 67.2% and the Kd was determined as 27.1 nM.

B28: 39908-D2 (designed binder)
chain: B18 chain with N36S, C55R, R58P, N60K, S61T, I62T
notes: group M3-A50; ΔS82, M83R; also called M29 (clone ID)
Consider B28, for which the B max was determined as 68.8% and the Kd was found to be 23.3 nM.

B29: 39633-G6 (designed binder)
chain: B14 chain with L29P, W30F, A33T, N36S, M39V, A58P, T59P, M60K, S61T
notes: group M3-A50; FG loop printed -TLRPW (one residue deleted), no scaffold mutation printed; also called M18 (clone ID)
Take B29: the B max amounted to 75.1% and the Kd is 19.7 nM.

B30: 39908-E5 (designed binder)
chain: B18 chain with T27S, C55S, I62T
notes: group M3-A50; ΔS82, M83R; also called M56 (clone ID)
As to B30, the B max was 77.8% and the Kd came out at 21.9 nM.

B31: 39908-A1 (designed binder)
chain: B18 chain with T27S
notes: group M3-A50; ΔS82, M83R; also called M02 (clone ID)
On to B31, for which the B max was determined as 50.2% and the Kd worked out at 12 nM.

B32: 45927-E1 (designed binder)
chain: MTIPEIIIKVRGTQVVGSDMTVIVEFTNPLKETLRNVWVHLDGPGVTRPMKKMFTGILQWSTVQWEEVVRPWVSGHRKLIASMSPHAWWQHHGNFSVYGELDVQIQRRDYKDDDDK
notes: group M2-Aext
Consider B32, for which the B max is 4.57% and the Kd worked out at 6.04 nM.
